Experimental data as given in publication PMC10397247.

Legend:
Assay in all cases: two-hybrid library CCNG1;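 also: natural log of median RNA to DNA barcode read ratio; higher means stronger binding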
[1] = biological target: T1, 4H3427-bH
T1 chain: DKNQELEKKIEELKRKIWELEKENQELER

[2] = biological target: T2, 4H72-bH
T2 chain: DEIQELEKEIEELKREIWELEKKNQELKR

[3] = biological target: T3, 4H967-bH
T3 chain: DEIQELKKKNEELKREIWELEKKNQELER

[4] = biological target: T4, 4H568-bH
T4 chain: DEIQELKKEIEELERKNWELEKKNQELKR

[5] = biological target: T5, 4H3782-bH
T5 chain: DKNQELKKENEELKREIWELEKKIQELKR

[6] = biological target: T6, 4H4001-bH
T6 chain: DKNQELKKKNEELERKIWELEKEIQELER

[7] = biological target: T7, 4H338-bH
T7 chain: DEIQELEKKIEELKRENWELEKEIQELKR

[8] = biological target: T8, 4H754-bH
T8 chain: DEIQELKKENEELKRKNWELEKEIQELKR

[9] = biological target: T9, 4H883-bH
T9 chain: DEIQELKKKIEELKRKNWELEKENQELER

[10] = biological target: T10, 4H3354-bH
T10 chain: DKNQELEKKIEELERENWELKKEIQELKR

[11] = biological target: T11, 4H454-bH
T11 chain: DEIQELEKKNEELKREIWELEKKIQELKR

[12] = biological target: T12, 4H607-bH
T12 chain: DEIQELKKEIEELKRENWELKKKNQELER

[13] = biological target: T13, 4H908-bH
T13 chain: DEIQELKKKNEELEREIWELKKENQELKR

[14] = biological target: T14, 4H918-bH
T14 chain: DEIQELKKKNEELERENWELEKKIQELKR

[15] = biological target: T15, 4H687-bH
T15 chain: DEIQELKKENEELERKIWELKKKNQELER

[16] = biological target: T16, 4H331-bH
T16 chain: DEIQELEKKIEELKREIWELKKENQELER

[17] = biological target: T17, 4H3855-bH
T17 chain: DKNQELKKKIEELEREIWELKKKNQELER

[18] = biological target: T18, 4H2729-bH
T18 chain: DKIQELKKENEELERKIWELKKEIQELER

[19] = biological target: T19, 4H797-bH
T19 chain: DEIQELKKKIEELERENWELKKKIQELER

[20] = biological target: T20, 4H953-bH
T20 chain: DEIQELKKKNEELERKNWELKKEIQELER

[21] = biological target: T21, 4H3112-bH
T21 chain: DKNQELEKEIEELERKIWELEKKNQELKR

[22] = biological target: T22, 4H717-bH
T22 chain: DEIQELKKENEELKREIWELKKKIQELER

[23] = biological target: T23, 4H3185-bH
T23 chain: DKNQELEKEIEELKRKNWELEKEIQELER

Binder DKIQELKKENEELERKIWELKKEIQELER [4H2729-bH] has an interaction score [1] of 0.368, an interaction score [2] of -1.03 and an interaction score [3] of 0.548. For the same binder, the interaction score [4] was -0.0225, the interaction score [5] was 0.82 and the interaction score [6] was -0.467. It also gave an interaction score [7] of -0.279, an interaction score [8] of 0.0247 and an interaction score [9] of -0.885. The interaction score [10] was -0.446, the interaction score [11] was 1.36 and the interaction score [12] was -1.66. It also gave an interaction score [13] of -0.811, an interaction score [14] of 0.482 and an interaction score [15] of -0.723. It also gave an interaction score [16] of -1.61, an interaction score [17] of 0.286 and an interaction score [18] of 1.2. It also gave an interaction score [19] of -0.381, an interaction score [20] of -0.638 and an interaction score [21] of 0.258. It also gave an interaction score [22] of -0.127 and an interaction score [23] of -3.12.
